The values that follow come from the NTF2 design screens of Basanta et al. (2020).

The nature of this data set: protease stability score; higher = more stable; yeast display proteolysis, trypsin and chymotrypsin.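 Note: relative to predicted unfolded state with 0 unfolded-like and 1 meaning tenfold more protease.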
As for “DRHERKKVAKDFNEALETNDHEQLMEQMDPNARIKYGDKHYHGREDLRRFWKKLVDSVDHITVDKMQVRGEEVVVLAKAESNGRNETFRLVMEFHNGRIKFVRKDTP”, the protease stability score came out at 1.05.
The same measure for “DRIEEEFEFALRHLIHNWVTGDETRLQKLADPNVRTVFEGREHHGRESFTELVHEIRFHDFRLRDYKIQGNKIVVDGEFDVDINGVRRIIRVELEIIKINGRWYIHSISFL”: 0.203.
Take “DRIEELSEEALHILKEVVRTGDERLIEENMDPNTRLEIGDKEFHGRHYAERFARDLGIKHMTFHHYETIDGRVHIHGTLHFNGRTHHTQIVLLKVNGQWRIERIHID”: the protease stability score is 0.669.
With “DRLEELLRHVSSLFLHSVETGDFDILQKLADPHVRMEVDGKELHGREHMVQRILDEYHKFGFTQIDSRLEDVRVYGDKVEVDLEHHFDGKTYKYEIILRKVNGRWTLESVIVR”, the protease stability score amounted to 1.22.
In the case of “DRLEELVERIAEIFLESYLTGDWKHLFDYFDPHAKLNIDGQESVGRESIQLMLEIHFKRVDHIQHFHRDDHRIQGNKFVFIGTLEGHVNGRTTRSRVKVEVTAVDGRIEELHIHIE”, the protease stability score was determined as 1.23.
In turn, “DRLHEMAREFSEEWSRAVKTGDEQLYSKLVDPNARFSIGEFDFHGRDEVSRIMKHWRIEDVHLSSVSVQGEKVEIRGHLHGDFDGRRQDVEVIIIVLKVNGRWFLRDLEFR” displayed a protease stability score of 1.31.
Regarding “DRQKEILRELMEMFLTIFETGDEERFWELADPHVRHVIDIGDKEIRRVGREEMLKVWEHLYREMRIHRITLKDVRLVNGVFHAHVKVDGEYNGQRRETEMDIELNVVNGRVKSLIIHIQ”, the protease stability score amounted to 1.89.
Regarding “DRREEHAVNVFEIMFVLLLTGDETLFDKLFDPHVLFIIGDKEYHGRERFSKEMLRWIEEWRIQEFKIKDVRVVGDKAEIDGRIRGRYGDKETEIELHLIVMKVDGRWLVHSIELV”, the protease stability score was found to be 1.09.
In the case of “DRREEMEEIADELRRELIKTGDEHSTHRLADPHAKLHIGDKEYHGMEFMIRFFKILGVDHLRLQDIRVIDGQVHIHITSRVGDKRVHVEIISDKYNGRWRLREVIITID”, the protease stability score came to 0.711.
The figure for “DRRQEELRRMAEIWIHNELTGNEDEFRKLADPNVRFHLHVNGRVLSSHGMETLVKLFRELLEEWRIKEIHIHDMHIQGDKVHLEGRRRGTIGDKEDIYEVEIHVVIVNGKMKEITVIIK” is 1.51; for “DSDEEATKDFLEILIKLEMTGNEEEMRKMLDPNVRLIIDGVNLHGREALNVYLERFKNIQVEEIRIRHIEFQGEKVKIDYEWTVRINGRHHHQRTTIILIKYDGRWIIHMIHWH” it is 2.55.
Sequence “DSDHHRAYEYAEFFIEWHETGNEDVLTELLDPHVRLIVDGQHYHGRDLIVRFLVQWRIHRFHIHDVKSIGEYIRVDTHVDMEFDGKRIITQVELVIIKINGRWRYKHISIP” had a protease stability score of 1.22.
Sequence “DSDQSKREMDKFLEMVSTGDPDEVNRLLDKDAHAHVGDQTYHGREEISHMWKELREKIDHLEVHDYKVNGNKLEVDMHATINGQNVVFTVVAVLRNGHFESVEVQYRSEEEEEKVKR” yielded a protease stability score of 0.776.
The same measure for “DSEEEDARRALQEFLEHLATGNWEVLTKMMDPNTRLDVDGRDIHGWDEVKHHLKEMRVTIDHLHIERYIVQGEKVDIRGRVHILKEFDGKVLRHDRHVRIIFEKVDGRWIIHKIEHR”: 1.99.
For the sequence “DSEEKDQRKASELTMRLLKTGNEDLMSHFFDPDTKVTIGDKEYHGREVLSHLLWEEKERIKGMRFEIKDLHVRYIGDKIRVESHVVLEINGVTLDTELIFHAEKVDGRWLSRSFEVRIT”, the protease stability score was -0.023.
Turning to “DSEEKWDREFVKDFVHNEKTGDEERLKELMDPHAILLIDINGREIRHHGREAMTEEVDRFLKHAGVDHMDIHDVKIQGDKVRVDIRIEIGDKRQKSHIIIEKINGQWRVTQIHIHVE”, the protease stability score worked out at 0.989.
“DSEHEEAKTFVKELDKSIETGDEEKLKELLDPHTLIIVGDKFRIGWEWMANKISQIRIHMETRIRDVEHQGDKMIVHTDVRIDINVDGKKIHEQRDIHLIIRKVNGQWILKEIEIR”: the protease stability score was determined as 1.36.
Sequence “DSHEETNKFFFELTTHALETGDFDFLKKLADPHVRLNIDGRDTIGMDFLLRLWRELGFKHQHLKDMKIYGNWTYLDMHLHFNGREHDIHLNFKIFNGQMESIDVHIR” displayed a protease stability score of 1.32.
Sequence “DSHRELLERFARLMLHLWLTGDEDELHKYMDPHVRYHQGEFHIHGREEVTRWASELHKKLGINHEDQERVNIYDGKNHVDTRLDINGRHLRVELRIDVWNGRIREVQVHHR” had a protease stability score of 1.41.
The sequence “DSHYHLFIYNMELLSTLLKTGDEHRNTEMFDPHVRIVVGEKEIHGREDVEKYLREIRIEEMRFHLRRLDVQGEKVTVEGELRIRFWIGDKEHEHNEDARIHLLKINGRWRLKEIESK” had a protease stability score of 2.43.
The figure for “DSLEDIFKLAVDDLEFLYETGDEEMTSQMADPNVRVIFNGRDFWGWHYLLKIFSELIKKLGIDHIRLEIDHVHLQGDKVDIHGTLRNHIGDFIFVHHTTHFLVKIDGRWFIRSVKIR” is 2.15; for “DSLEEMTRKWFEKWVRDLKTGDEQSMTELADPHVRFLQGDKEYHGRELFTELESEKRKRFDHLELRLHSMEVQGDKLHIDSRMILKIGDFVLKLNVYLHVLKIDGRWLLEEIRIK” it is 0.704; for “DSLEKHTEDSLRFFLHILRTGDEEELSDLLDPRTRYEFNGKEFHGREQVVEVLIRLAEHIRIEELHVTHVEVYGDKVNSETLLIVDVDGQKRILHTRVLATKVNGKWLFQRIRIV” it is 2.17.
“DSLHEKVEIMAHLLVEIIRTGNEEDWRRYVDPNVRIRIGDKDLHGREEAFRVVREIRIIVHDIKIRSLDVQGDKVESDVEVDVEFRIGDKVNRIHTRFRLIWTKVDGRWINESMSIE” displayed a protease stability score of 2.61.
The same measure for “DSSENFMRHMMEEVWNALVTGDEKLFQRLADPDVRLHFNGVHTHGRENVLTFLRSLDEHLGVKHRSIHDFTIVGDYSHIDTTMEVGDKHWRIHLFLVIIDGRVHHIEIRIE”: 2.23.
Sequence “DSVEELAKRSVELLLRLLKTGDEEEISRLADPDTRLVIGEFEFHGMEKVEHSWRKMGFTIHEWRIHDVEVQGDKLIVHVHQNIEFNGVHEEFRSIIIARKINGRWRLKSLHWK” gave a protease stability score of 1.67.
In turn, “DTDAVRRALKFIDAMQDGDPDKARELMDPNARVNIGDKEYHGMTSFVKDLKRLRDEIRVQYNIRDYNAQGEKIHVTVDVVFEHNGRPVDERFNVTIDIQGDKIKQVTAHRTK” showed a protease stability score of 1.5.
“DTDKKHIQNVLRLLSTLEHTGDWEALKELADPNVRVVVNGQEIHGRDMFNKHFEELRINDSRMILRDFEVQGDKIHVEGEVEFDGIIDGREKRFVRHVRIINVKIDGRWVIREIQVR” registered a protease stability score of 1.62.
Sequence “DTDQTLFEDYAKMYMKDLLTGDFESIEKYADPRVQVHIGDKEIHGREIFVKYLWEHNEQVDHRQFHFKDVDHFDGKIHVHMEMHIDVNGKLINEKLHVIIWKFNGRWIMKSVHHR” displayed a protease stability score of 0.78.
As to “DTDTHTVKEFIRALVESSRTGDEDLLRDFADPRMRIDIDGRIFHGRENALRWLSELRIEEVRIDHVTIVDGRLHVDVTYRGDINGQHTETRVILIILKVNGRWRMHYIEVR”, the protease stability score worked out at 1.55.
Take “DTEDHLSHRVLEYHQEVEKTGDWHELFNNIDPHARMSVGDKRYHGMESMSKWLSRIKNAKIDEEHIEIQGNKIILHGTINVDGVRIESIILSLKVDGRWLRKEVRFH”: the protease stability score came to 0.19.
In turn, “DTEDKLSEEALKDLLEKVKTGDPQVMEELADPEVKVDIGDKNLHGREEYTRWVEKLWKRVPNLKLEIDHVEFQGDYVLIEGRIIYNGRKHKIKIHSLKIDGRWLIETVRIR” displayed a protease stability score of 1.39.
“DTEEEILKQYLELLRRQHATGDEDSIKHLVDPNVRNDVNGVDIHGRDRMREWIERHRHNLGIDHIEIRITDLHIIDGRIHLDVRVFYRVDGRTIHMEIYVVLVKVDGRWSVKSRHLH” displayed a protease stability score of 0.911.
For the sequence “DTEEKELQKSLKELVTAVQTGDFKLLKELFDPHVRIDIGDKNVIGREEFSRFQKEEMEKWGVSRFTFDMEIHRYEIQGNKAYVDALNREEINGQEIHFNVDLFIHKINGKWLITEIRNK”, the protease stability score amounted to 0.494.
The sequence “DTEEKLARDIVRIVSELIFTGNEQDLKRLHDPRVRLEVLFENHYLEFHGWEDYLEWLEEWRNHMRMKEIHVHTLQVYGNKARDEVHTVVHIGDKRIETRMHFIVVVINGRIKYISVHIE” returned a protease stability score of 1.9.
Sequence “DTEERLLHEMLRYLLEWFITGDEELFARLADPNTRTNVNGRHFHGREEMARLLEKWWRDFGVKHVHIEHTRVQGDYLHIDTRLHIGDKDLHVHFKLLVIDGRIRSLEIIIR” gave a protease stability score of 0.689.
As for “DTEKYLYDFALRLHIHAHETGNFDQLIKNLDPHYRIDINGQIFHGREWVEREYKRAGIDKFELQHFEVKHEHVQGDFLIMDGKLEGNFNGVRINTRVEIYHEKFDGQWKIREVHHR”, the protease stability score was found to be 0.185.
For “DTEQKHVLHLLDEVLHNILTGDWDRIDELMDPNVRVIIGEWDHHGRSYFRELHHLLMLKLGVDHRHIKIQDKDAQGEYAVAHTHLELRIGDKRETYQTRLIVSVVNGKIEEIRIHIG”, the protease stability score came to 0.877.
“DTIERFVRHSFNLFVKQLETGDEHTLEKMADPHVRLEYGDKEYHGREEFKRQMHEIRFKRLELKRIEIQGEWAIMHGEDDGHFNGVDMKLESTEIAVKVNGRWYLKSFILK” returned a protease stability score of 1.41.
In turn, “DTSFTILEEVIKLFIEASETGDERVIQHLFDPNVRFRVDGKDFHGMDWLLEHFSHLRLHDIQITHVHIYNGRVEVTGHVRGNFDGQEKVHNTHILLRKIDGKWRIEHISMK” gave a protease stability score of 1.41.
Take “DTTEKHQKDMARAQIHSLETGDFKELMELLDPNVRFEFEVGDKRIERHGRELMVHFILKEYEEIRIRIDSWRVVNGVVKIELRLHVGDKESRIEIYLLIINGQAKSVHFDVR”: the protease stability score is 1.09.
Take “DTVTEMDRHIFEHLLHLWKTGDWKRMTELFDPHARSVFNGRELHGRKSMQEAIEIIVRRADHIELHIRSLDVVDGQIDLDGELILIVGDKKIVHETHIHIHVYNGQVTELSFQIV”: the protease stability score stood at 0.585.
“DVEEEYRHVMEEVHKHAMKTGDEQDILHLMDPNARFEVDGKIYIGREWLRRFVDILGVSRIHLHDLKIKDYRIIGNKIEVDGNIDGIVGNKRHEIDSHVISEKIDGRWIIKREKHR”: the protease stability score came out at 0.324.
The figure for “DVEQEISKTLVHLWVFALLTGDEHLIRKLADPHVRLDIDGVTIVGMDLVAKRITELRIERFTIEDVKFEIQGDKLISIMDTKVDGRIGDKRIETRVIILLIFEKIDGRWQLSTSSEEKR” is 1.16.
On to “DYHEEIMRKVHEFFLAMVTTGDEEMIEKLFDPHVRIDINGRDHHGRDVAVKIWEELWREIRFKHVHLHDMKSFNGVLHLHVREKVDVNGRDLIIETHFVIRKFDGQWHLHSLKIN”, for which the protease stability score was 1.38.
“EDDERELKLMLELLLHSQHTGDFKEAERLADPNARFEFNGREFHGREQFHSFIWKLGVDHSEVKRVRLQGEFLTLHIKHNVNGKEIDMIWYNVKVNGKWLIHHLEVR”: the protease stability score came out at 1.21.
In turn, “EDEEQHTEELAHIFTEDYFTGDESSLERYLDPHVRLRIEYGDWEFSVHGRERAVDKIHWTMKQMGVKHVYLRHIRVQGDKVELNLELRVGDKVREQRIEIKVVNGRIKLVNIVIH” had a protease stability score of 2.15.
